Assays:
chymase [1] = biological target: T1, chymase (Homo sapiens, UniProt P23946 P23946:22-247); experiment: inhibition; angiotensin I; recombinant 0.108; details: tags: human skin mast cell, Calbiochem
T1 sequence: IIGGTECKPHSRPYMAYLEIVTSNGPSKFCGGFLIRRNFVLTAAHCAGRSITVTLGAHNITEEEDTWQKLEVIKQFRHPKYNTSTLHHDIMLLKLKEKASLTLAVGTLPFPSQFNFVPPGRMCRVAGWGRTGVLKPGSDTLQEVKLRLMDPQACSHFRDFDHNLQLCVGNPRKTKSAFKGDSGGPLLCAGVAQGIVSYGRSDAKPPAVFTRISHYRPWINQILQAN
Protocol: (§1) The total volume of solution for an enzyme reaction in the assay was set to 50 μL, and the reaction was performed in solution C buffer. First, 0.3-0.75 ng of chymase (recombinant, (manufactured by SIGMA) or native (manufactured by Calbiochem)) was diluted with solution C to give 5 μL thereof. Here, the recombinant is chymase expressed by yeast, and the native is chymase purified from human skin mast cell. The nucleic acid was serially diluted with solution C at a concentration of 0.0027-2 μM to give 25 μL thereof. The chymase solution (5 μL) and the nucleic acid solution (25 μL) were mixed, and the mixture was incubated at 37° C. for 5 min. […] The whole mixture was centrifuged at 4° C., 14000 rpm for 10 min, and the supernatant (30 μL) was used for the next fluorescence induction reaction.
(§2) The above-mentioned supernatant (30 μL) was added to a 96 well plate (black, manufactured by Costar), a solution (15 μL) of 2% o-phthalaldehyde (manufactured by SIGMA) in methanol and 0.3M NaOH solution (170 μL) were added to each well, and the mixture was incubated at room temperature for 10 min. […] The plate was set on a microplate reader SpectraMax190 (manufactured by Molecular device) and the fluorescence intensity was measured at an excitation wavelength of 355 nm and a fluorescence wavelength of 460 nm.

chymase [2] = biological target: T1, chymase; experiment: inhibition; Suc-AAPF-MCA, 37 C, solution C; details: tags: recombinant, expressed in yeast, SIGMA
Protocol: Here, Suc is a protecting succinyl group, and MCA is a 4-methylcoumaryl-7-amide group; upon cleavage of the C-terminal side of phenylalanine, AMC (7-amino-4-methyl-coumarine) is released. By detecting the fluorescence of this AMC, the enzyme activity of chymase can be determined. The assay was performed using a 96-well plate (F16 Black Maxisorp Fluoronunc, manufactured by Nunc), with a reaction mixture volume of 100 μL, in solution C as a buffer solution. First, each nucleic acid was serially diluted to 0.0027-2 μM concentrations in solution C to obtain 50 μL solutions. After 10 μL of the 1 mM substrate prepared in solution C was added thereto, the plate was set to the microplate reader SpectraMax190 (manufactured by Molecular Devices Corporation), and incubated at 37° C. for 5 minutes. Separately, 0.05 μg (or 0.005 μg) of chymase (recombinant, manufactured by SIGMA) was diluted in solution C to obtain a 40 μL chymase solution, and incubated at 37° C. for 5 minutes. The chymase solution was added to the mixture of the nucleic acid and substrate to initiate an enzyme reaction. The final chymase concentration in the reaction mixture was 16.7 nM (or 1.67 nM), the final substrate concentration being 100 μM. The plate containing the reaction mixture was set to the microplate reader SpectraMax190 (manufactured by Molecular Devices Corporation), and examined for time-dependent changes in the fluorescence intensity at 37° C. for 5 minutes (or 30 minutes) (excitation wavelength 380 nm, detection wavelength 460 nm). A linear approximation of the increase in the fluorescence of the AMC released from the substrate by chymase activity was generated, and its slope was taken as the initial velocity […]. For control, samples were treated and analyzed in the same manner in two cases: use of a 30N or 40N (a nucleotide of 30 or 40 consecutive bases represented by N; N is A, G, C or T) nucleic acid pool (negative control), and use of chymostatin, a known chymotrypsin-like serine protease inhibitor (positive control). Taking the initial reaction velocity without the nucleic acid and inhibitor (V_0) as a 100% enzyme activity, the inhibitory rate of each test substance was calculated using the following equation: […]
The chymase inhibitory activity was measured in the same manner as in Example 3.

chymase [3] = biological target: T1, chymase; experiment: inhibition; angiotensin I; recombinant 0.119; details: tags: human skin mast cell, Calbiochem
Protocol: as §1, §2

chymase [4] = biological target: T1, chymase; experiment: inhibition; angiotensin I; recombinant 0.274; details: tags: human skin mast cell, Calbiochem
Protocol: as §1, §2

chymase [5] = biological target: T1, chymase; experiment: inhibition; angiotensin I; recombinant 0.397; details: tags: human skin mast cell, Calbiochem
Protocol: as §1, §2

chymase [6] = biological target: T1, chymase; experiment: inhibition; angiotensin I; recombinant 0.089; details: tags: human skin mast cell, Calbiochem
Protocol: as §1, §2

chymase [7] = biological target: T1, chymase; experiment: inhibition; angiotensin I; recombinant 0.361; details: tags: human skin mast cell, Calbiochem
Protocol: as §1, §2

chymase [8] = biological target: T1, chymase; experiment: inhibition; angiotensin I; recombinant 0.354; details: tags: human skin mast cell, Calbiochem
Protocol: as §1, §2

chymase [9] = biological target: T1, chymase; experiment: inhibition; angiotensin I; recombinant 0.456; details: tags: human skin mast cell, Calbiochem
Protocol: as §1, §2

chymase [10] = biological target: T1, chymase; experiment: inhibition; angiotensin I; recombinant 0.022; details: tags: human skin mast cell, Calbiochem
Protocol: as §1, §2

chymase [11] = biological target: T1, chymase; experiment: inhibition; angiotensin I; recombinant 0.207; details: tags: human skin mast cell, Calbiochem
Protocol: as §1, §2

chymase [12] = biological target: T1, chymase; experiment: inhibition; angiotensin I; recombinant 0.326; details: tags: human skin mast cell, Calbiochem
Protocol: as §1, §2

chymase [13] = biological target: T1, chymase; experiment: inhibition; angiotensin I; recombinant 0.078; details: tags: human skin mast cell, Calbiochem
Protocol: as §1, §2

chymase [14] = biological target: T1, chymase; experiment: inhibition; angiotensin I; recombinant 0.080; details: tags: human skin mast cell, Calbiochem
chymase [15] = biological target: T1, chymase; experiment: inhibition; angiotensin I; recombinant 0.039; details: tags: human skin mast cell, Calbiochem
chymase [16] = biological target: T1, chymase; experiment: inhibition; angiotensin I; recombinant 0.057; details: tags: human skin mast cell, Calbiochem
chymase [17] = biological target: T1, chymase; experiment: inhibition; angiotensin I; recombinant 0.210; details: tags: human skin mast cell, Calbiochem
Protocol: as §1, §2

chymase [18] = biological target: T1, chymase; experiment: inhibition; angiotensin I; recombinant 0.237; details: tags: human skin mast cell, Calbiochem
chymase [19] = biological target: T1, chymase; experiment: inhibition; angiotensin I; recombinant 0.446; details: tags: human skin mast cell, Calbiochem
Protocol: as §1, §2

chymase [20] = biological target: T1, chymase; experiment: inhibition; angiotensin I; recombinant 0.137; details: tags: human skin mast cell, Calbiochem
chymase [21] = biological target: T1, chymase; experiment: inhibition; angiotensin I; recombinant 0.055; details: tags: human skin mast cell, Calbiochem
Protocol: as §1, §2

chymase (recombinant) = biological target: T2, chymase (recombinant) (UniProt P23946 P23946:22-247); experiment: inhibition; SPR ++; 0.027 uM in Table 6; details: tags: SIGMA, expressed in yeast; stem-loop (MFOLD)
T2 sequence: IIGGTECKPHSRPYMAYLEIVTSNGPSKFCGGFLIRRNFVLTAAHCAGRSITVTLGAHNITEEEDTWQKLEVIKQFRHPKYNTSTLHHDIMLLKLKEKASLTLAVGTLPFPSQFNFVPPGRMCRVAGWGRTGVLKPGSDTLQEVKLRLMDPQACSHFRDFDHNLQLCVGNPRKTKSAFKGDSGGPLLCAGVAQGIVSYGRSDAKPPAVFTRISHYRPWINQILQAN
Protocol: Here, Suc is a protecting succinyl group, and MCA is a 4-methylcoumaryl-7-amide group; upon cleavage of the C-terminal side of phenylalanine, AMC (7-amino-4-methyl-coumarine) is released. By detecting the fluorescence of this AMC, the enzyme activity of chymase can be determined. The assay was performed using a 96-well plate (F16 Black Maxisorp Fluoronunc, manufactured by Nunc), with a reaction mixture volume of 100 μL, in solution C as a buffer solution. First, each nucleic acid was serially diluted to 0.0027-2 μM concentrations in solution C to obtain 50 μL solutions. After 10 μL of the 1 mM substrate prepared in solution C was added thereto, the plate was set to the microplate reader SpectraMax190 (manufactured by Molecular Devices Corporation), and incubated at 37° C. for 5 minutes. […] The plate containing the reaction mixture was set to the microplate reader SpectraMax190 (manufactured by Molecular Devices Corporation), and examined for time-dependent changes in the fluorescence intensity at 37° C. for 5 minutes (or 30 minutes) (excitation wavelength 380 nm, detection wavelength 460 nm). A linear approximation of the increase in the fluorescence of the AMC released from the substrate by chymase activity was generated, and its slope was taken as the initial velocity ($Vmax$). […]
Chymase inhibitory activity was determined in the same manner as Example 3.

[22] = biological target: T3, chymase (native, human skin mast cell) (Homo sapiens, UniProt P23946 P23946:22-247); experiment: inhibition; angiotensin I substrate; recombinant 0.235 uM; details: tags: Calbiochem, stem-loop (MFOLD)
T3 sequence: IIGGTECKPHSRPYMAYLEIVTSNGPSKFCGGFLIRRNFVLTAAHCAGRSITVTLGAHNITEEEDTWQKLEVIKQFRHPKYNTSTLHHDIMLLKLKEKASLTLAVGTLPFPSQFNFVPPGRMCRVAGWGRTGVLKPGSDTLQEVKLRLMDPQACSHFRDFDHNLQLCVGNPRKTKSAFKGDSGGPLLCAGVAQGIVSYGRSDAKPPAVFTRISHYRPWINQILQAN
Protocol: as §1, §2

chymase [23] = biological target: T1, chymase; experiment: inhibition; angiotensin I; recombinant 0.085; details: tags: human skin mast cell, Calbiochem

GGGUUAGAUAGAGUUAAAAACCC (ssRNA, 2'-F U and C; PS 5-6) [56(18)]
IC50 (chymase [1]): 174 nM

GGGUUAGAUAGAGUUAAAAACCC (ssRNA, 2'-F U and C; 2'-OMe 1-3,7,8,10,13,16-20; PS 6-7) [56(23)]
IC50 (chymase [2]): 32 nM
IC50 (chymase [3]): 360 nM

GGCAGAUAGAGUUAAAGCC (ssRNA, 2'-F U and C) [SEQ 65]
IC50 (chymase [4]): 878 nM

UAACUAUGGUUAGAUAGAGUUAAAAACCAUAGAAGA (ssRNA, 2'-F U and C) [SEQ 54]
IC50 (chymase [5]): 614 nM

GGGUUAGAUAGAGUUAAAAACCC (ssRNA, 2'-F U and C; 2'-OMe 1-3,7,10,13,16-20; 5' and 3' idT) [56(31)]
IC50 (chymase [6]): 266 nM

GGGUUAGAUAGAGUUAAAAACCC (ssRNA, 2'-F U and C; 2'-OMe 1-3,7,8,10,13,16-20) [56(21)]
IC50 (chymase [2]): 45 nM
IC50 (chymase [7]): 722 nM

CUAUGGUUAGAUAGAGUUAAAAACCAUAG (ssRNA, 2'-F U and C) [SEQ 55]
IC50 (chymase [8]): 606 nM

GGGUUAGAUAGAGUUAAAAACCC (ssRNA, 2'-F U and C; 5' PEG 40 kDa; 3' idT) [56(17)]
IC50 (chymase [9]): 613 nM

B1: SEQ 14 (ssRNA)
RNA: GGGACGGUAGGAAUUCUCGUUCCUGACAGCAUUUGAGAUAGAUUUAAACAAACGCACAUAGAAGAGCGGCCGC
modifications: 2'-F U and C
IC50 (chymase [10]): 63 nM

GGGUUAGAUAGAGUUAAAAACCC (ssRNA, 2'-F U and C; 5' and 3' idT) [56(1)]
IC50 (chymase [11]): 404 nM

GGGUUAGAUAGAGUUAAAAACCC (ssRNA, 2'-F U and C; 2'-OMe 1-3,7,8,10,13,16-20; 5' and 3' idT) [56(26)]
IC50 (chymase [2]): 54 nM
IC50 (chymase [12]): 743 nM

GGGUUAGAUAGAGUUAAAAACCC (ssRNA, 2'-F U and C; 2'-OMe 1-3,10,13,16-20; 5' and 3' idT) [56(32)]
IC50 (chymase [13]): 185 nM

GGGUUAGAUAGAGUUAAAAACCC (ssRNA, 2'-F U and C; 2'-OMe 1-3,7,8,10,13,16-20; PS 5-6,6-7; 5' and 3' idT) [56(29)]
IC50 (chymase [2]): 36 nM
IC50 (chymase [14]): 366 nM

GGGUUAGAUAGAGUUAAAAACCC (ssRNA, 2'-F U and C; 2'-OMe 1-3,10,13,16-20; PS 6-7; 5' and 3' idT) [56(35)]
IC50 (chymase [2]): 24 nM
IC50 (chymase [15]): 120 nM

GGGUUAGAUAGAGUUAAAAACCC (ssRNA, 2'-F U and C; 2'-OMe 1-3,7,10,13,16-20; PS 6-7; 5' and 3' idT) [56(34)]
IC50 (chymase [2]): 31 nM
IC50 (chymase [16]): 162 nM

GGGUUAGAUAGAGUUAAAAACCC (ssRNA, 2'-F U and C; 2'-OMe 1-3,8,10,13,16-20; 5' and 3' idT) [56(30)]
IC50 (chymase [2]): 34 nM
IC50 (chymase [17]): 521 nM

GGGUUAGAUAGAGUUAAAAACCC (ssRNA, 2'-F U and C; 2'-OMe 1-3,7,8,10,13,16-20; PS 5-6) [56(22)]
IC50 (chymase [2]): 52 nM
IC50 (chymase [18]): 563 nM

GGGUAACUAUGGUUAGAUAGAGUUAAAAACCAUAGAAGACCC (ssRNA, 2'-F U and C) [SEQ 53]
IC50 (chymase [19]): 764 nM

GGGUUAGAUAGAGUUAAAAACCC (ssRNA, 2'-F U and C; 2'-OMe 1-3,7,8,10,13,16-20; PS 6-7; 5' and 3' idT) [56(28)]
IC50 (chymase [20]): 410 nM
IC50 (chymase [2]): 44 nM

GGGUUAGAUAGAGUUAAAAACCC (ssRNA, 2'-F U and C; PS 6-7) [56(19)]
IC50 (chymase [21]): 130 nM

GGGUUAGAUAGAGUUAAAAACCC (ssRNA, 2'-F pyrimidines) [SEQ 56]
IC50 (chymase (recombinant)): 46 nM
IC50 [22]: 508 nM

GGGUUAGAUAGAGUUAAAAACCC (ssRNA, 2'-F U and C; 2'-OMe 1-3,8,10,13,16-20; PS 6-7; 5' and 3' idT) [56(33)]
IC50 (chymase [23]): 291 nM
IC50 (chymase [2]): 35 nM
